Data on two molecules can be found in paper PMC9402439, “Reconstitution of a telomeric replicon organized by CST”.

In this data set the target is CTC1 (CST subunit);STN1 (CST subunit);TEN1 (CST subunit);Polα-primase, endogenous, co-purified with CST (Homo sapiens;Homo sapiens;Homo …, UniProt Q2NKJ3;Q9H668;Q86WV5;P09884;Q14181;P49642;P49643 …, |||). Kind of data set: EMSA; Kd,app shown only in figure; CST EMSA: 20 mM HEPES-NaOH pH 8.0, 150 mM NaCl, 2 mM MgCl2, 0.2 mM EGTA, 0.1% NP-40, 10% glycerol, 1 mM DTT, 2 h on ice, 0.7% agarose 1x TBE gel at 4 °C; POT1-TPP1N EMSA: C-strand synthesis buffer, 30 min at 30 °C. The conditions noted are these: protein: recombinant;recombinant;recombinant;native; tags: N-terminal 3xFLAG;N-terminal Myc;N-terminal HA;; copies: 1;1;1;1;1;1;1; label: 5'-32P; folds into G-quadruplex in KCl and NaCl, not LiCl.

B1: 9xTEL (ssDNA)
DNA: TTAGGGTTAGGGTTAGGGTTAGGGTTAGGGTTAGGGTTAGGGTTAGGGTTAGGG
On to B1, for which the binding result is on record as “binds”.

B2: 15xTEL (ssDNA)
DNA: TTAGGGTTAGGGTTAGGGTTAGGGTTAGGGTTAGGGTTAGGGTTAGGGTTAGGGTTAGGGTTAGGGTTAGGGTTAGGGTTAGGGTTAGGG
Take B2: the binding result was “binds”.
